Literature values in patent publication US20250341526A1, “NOVEL DYES” (Quantum-Si Incorporated, priority 2024, published 2025).

B1: Homo sapiens UBR2: amino acid recognition protein, SEQ ID NO: 174 (protein, listed as Homo sapiens)
chain: MGPLGSLCGRVFKVGEPTYSCRDCAVDPTCVLCMECFLGSIHRDHRYRMTTSGGGGFCDCGDTEAWKEGPYCQKHE
B2: PS615: amino acid recognition protein, SEQ ID NO: 175 (protein, listed as Kluyveromyces marxianus)
chain: MVNEHRGSQCSKQCHGTETVYYCFDCTKNPLYEICEECFDETQHMGHRYTSRVVTRPEGKVCHCGDISGYNNPEKAFQCKI
B3: PS616: amino acid recognition protein, SEQ ID NO: 176 (protein, listed as Kluyveromyces lactis)
chain: MHNDHRGSQCSKQCHGTETVYYCFDCTKNPLYEICEDCFDESQHIGHRYTSRVVTRPEGKVCHCGDISSYNDPKKAFQCRI
B4: PS541: amino acid recognition protein, SEQ ID NO: 170 (protein)
chain: MRCGHIFRAGEATYRCITCAADDTCVLCSRCFDASDHTGHQYQISLSSGNCGCCDCGDEEAWRLPLFCAIHTD
modifications: Aspergillus neoniger
B5: PS542: amino acid recognition protein, SEQ ID NO: 171 (protein, listed as Trichuris suis)
chain: MRCNHVFANGEATYSCRGCAADPTCVLCASCFELSAHKEHKYMITTSSGTGYCDCGDPEAWKADPFCQQHQP
B6: PS538: amino acid recognition protein, SEQ ID NO: 166 (protein, listed as Saccharomyces cerevisiae)
chain: MGDVHKHTGRNCGRKFKIGEPLYRCHECGCDDTCVLCIHCFNPKDHVNHHVCTDICTEFTSGICDCGDEEAWNSPLHCKAEEQ
B7: PS25: amino acid recognition protein, SEQ ID NO: 167 (protein, listed as Saccharomyces cerevisiae)
chain: MGSVHKHTGRNCGRKFKIGEPLYRCHECGCDDTCVLCIHCFNPKDHVNHHVCTDICTEFTSGICDCGDEEAWNSPLHCKAEEQ
B8: PS625: amino acid recognition protein, SEQ ID NO: 185 (protein, listed as Saccharomyces eubayanus)
chain: MGDVHKHTGRNCGRKFKIGEPLYRCHECGCDDTCVLCIHCFNPKDHINHHVCTDICSEFTSGICDCGDEEAWNSSLHCKAEEQ
B9: PS619: amino acid recognition protein, SEQ ID NO: 179 (protein, listed as Vanderwaltozyma polyspora)
chain: MENLHIGSCCNRQCYPTQTVYYCLTCTINPLYEICELCFDEDKHVGHTYISKSVIRPEGKVCHCGNPNVFKKPEFAFNCKN
B10: PS624: amino acid recognition protein, SEQ ID NO: 184 (protein, listed as Eremothecium sinecaudum)
chain: MPKNHNHKGRNCGRSFQPGEPLYRCQECAYDDTCVLCIRCFNPLDHVNHHVSTHICSEFNDGICDCGDVEAWNVELNCKAEED
B11: PS618: amino acid recognition protein, SEQ ID NO: 178 (protein, listed as Zygosaccharomyces bailii)
chain: MNASHKGAMCSKQCYPTETVFYCFTCTTNPLYEICESCFDEEKHRGHLYTAKVVVRPEGRVCHCGDPFVFKEPRFAFLCKN
B12: PS544: amino acid recognition protein, SEQ ID NO: 173 (protein, listed as Homo sapiens)
chain: MGPLGSLCGRVFKSGETTYSCRDCAIDPTCVLCMDCFQDSVHKNHRYKMHTSTGGGFCDCGDTEAWKTGPFCVNHEP
B13: PS617: amino acid recognition protein, SEQ ID NO: 177 (protein, listed as Eremothecium sinecaudum)
chain: MPKEHRGTSCNKHCQPTETVYYCFDCTKNPLYEICEECFDADKHLGHRWTSKVVSRPEGKICHCGDPSGLTDPENGYECKN
B14: PS620: amino acid recognition protein, SEQ ID NO: 180 (protein, listed as Saccharomyces cerevisiae)
chain: MGNMHIGTACTRLCFPSETIYYCFTCSTNPLYEICELCFDKEKHVNHSYVAKVVMRPEGRICHCGDPFAFNDPSDAFKCKN
B15: PS539: amino acid recognition protein, SEQ ID NO: 168 (protein, listed as Kazachstania africana)
chain: MQTSFTHKGRNCGRKFKVGEPLYRCHECGFDDTCVLCIHCFNPADHENHHIYTDICNDFTSGICDCGDTEAWNGDLHCKAEEI
B16: PS622: amino acid recognition protein, SEQ ID NO: 182 (protein, listed as Kluyveromyces dobzhanskii)
chain: MHSRFNHAGRICASKFKVGEPIYRCKECSFDDTCVICVNCFNPKDHVGHHVYTSICSEFNNGICDCGDTEAWNHDMHCKADEN
B17: PS543: amino acid recognition protein, SEQ ID NO: 172 (protein, listed as Trichinella spiralis)
chain: MKCNRQLICGEPTYCCLDCACDQTCIFCHACFQSSEHKNHRYSMSTSEGSGTCDCGDKEAWKSNYYCLNHKP
B18: PS623: amino acid recognition protein, SEQ ID NO: 183 (protein, listed as Kazachstania naganishii)
chain: MSKQFRHKGRNCGRKFRLGEPLYRCQECGYDDTCVLCINCFNPKDHEGHHIYTDICNDFTSGICDCGDEEAWLSPLHCKAEED
B19: PS621: amino acid recognition protein, SEQ ID NO: 181 (protein, listed as Kluyveromyces marxianus)
chain: MHSKFSHAGRICGAKFKVGEPIYRCKECSFDDTCVLCVNCFNPKDHTGHHVYTTICTEFNNGICDCGDKEAWNHTLFCKAEEG
B20: PS540: amino acid recognition protein, SEQ ID NO: 169 (protein, listed as Clathrospora elynae)
chain: MPCGHIFKNGEATYRCKTCTADDTCVLCARCFDASDHEGHQVFVSVSPGNSGCCDCGDDEAWVRPVHCNMHSA
B21: PS537: amino acid recognition protein, SEQ ID NO: 165 (protein, listed as Aedes aegypti)
chain: MVCGRVFKIGEPTYSCRECSMDPTCVLCSSCFKKSSHRLHKYKMSTSGGGGCCDCGDHEAWKRDPSCEEHAV

tested on: amino acid at a terminal position of a polypeptide; conditions: Table 2; amino acid at terminal position (phosphotyrosine also internal); inferred from literature and/or demonstrated by the inventors; cited from earlier work

Binding Pref., K, R, H:
B1, B2, B3, B4, B5, B6, B7, B8, B9, B10, B11, B12, B13, B14, B15, B16, B17, B18, B19, B20, B21
